# Source: US20230084763A1 (published 2023)
# T1: CD20 (UniProt P11836 1-297)
# T1 chain: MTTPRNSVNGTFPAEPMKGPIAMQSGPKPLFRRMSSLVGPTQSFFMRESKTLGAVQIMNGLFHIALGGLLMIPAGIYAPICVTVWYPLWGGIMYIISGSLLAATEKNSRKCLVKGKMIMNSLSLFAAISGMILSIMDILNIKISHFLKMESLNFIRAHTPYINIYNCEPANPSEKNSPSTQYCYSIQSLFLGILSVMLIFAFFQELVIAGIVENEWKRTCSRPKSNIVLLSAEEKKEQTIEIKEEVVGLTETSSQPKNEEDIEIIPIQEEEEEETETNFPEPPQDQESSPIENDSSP
# What was measured:
# CD20 [1] = molecular target: T1, CD20; assay: bio-layer interferometry; scFv, Run 1
# CD20 [2] = molecular target: T1, CD20; assay: bio-layer interferometry; scFv, Run 2
# CD20 [3] = molecular target: T1, CD20; assay: bio-layer interferometry; scFv, Run 3
# CD20 [4] = molecular target: T1, CD20; assay: bio-layer interferometry; scFv, Avg of 3 runs
Binder,Kd (CD20 [1]) [nM],Kd (CD20 [2]) [nM],Kd (CD20 [3]) [nM],Kd (CD20 [4]) [nM]
"Leu16 (antibody, V domains shown) VH: EVQLQQSGAELVKPGASVKMSCKASGYTFTSYNMHWVKQTPGQGLEWIGAIYPGNGDTSYNQKFKGKATLTADKSSSTAYMQLSSLTSEDSADYYCARSNYYGSSYWFFDVWGAGTTVTVSS VL: DIVLTQSPAILSASPGEKVTMTCRASSSVNYMDWYQKKPGSSPKPWIYATSNLASGVPARFSGSGSGTSYSLTISRVEAEDAATYYCQQWSFNPPTFGGGTKLEIK",157,127,131,138
"Rituximab (antibody, V domains shown) VH: QVQLQQPGAELVKPGASVKMSCKASGYTFTSYNMHWVKQTPGRGLEWIGAIYPGNGDTSYNQKFKGKATLTADKSSSTAYMQLSSLTSEDSAVYYCARSTYYGGDWYFNVWGAGTTVTVSS VL: QIVLSQSPAILSASPGEKVTMTCRASSSVSYIHWFQQKPGSSPKPWIYATSNLASGVPVRFSGSGSGTSYSLTISRVEAEDAATYYCQQWTSNPPTFGGGTKLEIK",–,–,122,119
"Hybrid (antibody, V domains shown) VH: QVQLQQPGAELVKPGASVKMSCKASGYTFTSYNMHWVKQTPGRGLEWIGAIYPGNGDTSYNQKFKGKATLTADKSSSTAYMQLSSLTSEDSAVYYCARSNYYGSSYWFFDVWGAGTTVTVSS VL: QIVLSQSPAILSASPGEKVTMTCRASSSVNYMDWFQQKPGSSPKPWIYATSNLASGVPVRFSGSGSGTSYSLTISRVEAEDAATYYCQQWSFNPPTFGGGTKLEIK",75.5,95.5,82.2,84.4
